Columns and labels:
Experiment in all cases: cell-based or functional assay
[1] = molecular target: HIV-1 JR-CSF Env N392Q (HIV-1 (isolate JR-CSF)) (UniProt P20871)
[2] = molecular target: HIV-1 JR-CSF Env R315A (HIV-1 isolate JR-CSF) (UniProt P20871)
[3] = molecular target: HIV-1 JR-CSF Env N355A (HIV-1 isolate JR-CSF) (UniProt P20871)
[4] = molecular target: HIV-1 JR-CSF Env I326A (HIV-1 isolate JR-CSF) (UniProt P20871)
[5] = molecular target: HIV-1 JR-CSF Env S306A (HIV-1 JR-CSF) (UniProt P20871)
[6] = molecular target: HIV-1 JR-CSF Env K421A (HIV-1 (isolate JR-CSF)) (UniProt P20871)
[7] = molecular target: HIV-1 JR-CSF Env D417A (HIV-1 (isolate JR-CSF)) (UniProt P20871)
[8] = molecular target: HIV-1 JR-CSF Env N262A (HIV-1 JR-CSF) (UniProt P20871)
[9] = molecular target: HIV-1 JR-CSF Env I420A (HIV-1 (isolate JR-CSF)) (UniProt P20871)
[10] = molecular target: HIV-1 JR-CSF Env V292A (HIV-1 JR-CSF) (UniProt P20871)
[11] = molecular target: Env of the clade A HIV-1 pseudoviruses of the cross-clade 162-pseudovirus panel (n = 26)
[12] = molecular target: HIV-1 JR-CSF Env T303A (HIV-1 JR-CSF) (UniProt P20871)
[13] = molecular target: HIV-1 Env of isolate 92TH021 (HIV-1)
[14] = molecular target: HIV-1 Env of isolate JR-CSF (HIV-1) (UniProt P20871)
[15] = molecular target: HIV-1 JR-CSF Env S393A (HIV-1 (isolate JR-CSF)) (UniProt P20871)
[16] = molecular target: HIV-1 JR-CSF Env E321aA (HIV-1 isolate JR-CSF) (UniProt P20871)
[17] = molecular target: HIV-1 JR-CSF Env S387A (HIV-1 (isolate JR-CSF)) (UniProt P20871)
[18] = molecular target: Env of the clade C HIV-1 pseudoviruses of the cross-clade 162-pseudovirus panel (n = 27)
[19] = molecular target: HIV-1 JR-CSF Env R419A (HIV-1 (isolate JR-CSF)) (UniProt P20871)
[20] = molecular target: HIV-1 JR-CSF Env D325A (HIV-1 isolate JR-CSF) (UniProt P20871)
[21] = molecular target: HIV-1 JR-CSF Env R327A (HIV-1 isolate JR-CSF) (UniProt P20871)
[22] = molecular target: HIV-1 JR-CSF Env P299A (HIV-1 JR-CSF) (UniProt P20871)
[23] = molecular target: HIV-1 JR-CSF Env Q422A (HIV-1 (isolate JR-CSF)) (UniProt P20871)
[24] = molecular target: HIV-1 JR-CSF Env N276A (HIV-1 JR-CSF) (UniProt P20871)
[25] = molecular target: HIV-1 JR-CSF Env P313A (HIV-1 JR-CSF) (UniProt P20871)
[26] = molecular target: Env of the clade F HIV-1 pseudoviruses of the cross-clade 162-pseudovirus panel (n = 15)
[27] = molecular target: HIV-1 JR-CSF Env I323A (HIV-1 isolate JR-CSF) (UniProt P20871)
[28] = molecular target: Env of the clade AG HIV-1 pseudoviruses of the cross-clade 162-pseudovirus panel (n = 10)
[29] = molecular target: HIV-1 JR-CSF Env N295A (HIV-1 JR-CSF) (UniProt P20871)
[30] = molecular target: HIV-1 JR-CSF Env K343A (HIV-1 isolate JR-CSF) (UniProt P20871)
[31] = molecular target: HIV-1 JR-CSF Env L416A (HIV-1 (isolate JR-CSF)) (UniProt P20871)
[32] = molecular target: HIV-1 JR-CSF Env N396A (HIV-1 (isolate JR-CSF)) (UniProt P20871)
[33] = molecular target: HIV-1 JR-CSF Env N339A (HIV-1 isolate JR-CSF) (UniProt P20871)
[34] = molecular target: HIV-1 JR-CSF Env W395A (HIV-1 (isolate JR-CSF)) (UniProt P20871)
[35] = molecular target: HIV-1 JR-CSF Env K305A (HIV-1 JR-CSF) (UniProt P20871)
[36] = molecular target: HIV-1 JR-CSF Env N386A (HIV-1 isolate JR-CSF) (UniProt P20871)
[37] = molecular target: HIV-1 JR-CSF Env F317A (HIV-1 isolate JR-CSF) (UniProt P20871)
[38] = molecular target: HIV-1 JR-CSF Env R304A (HIV-1 JR-CSF) (UniProt P20871)
[39] = molecular target: HIV-1 JR-CSF Env T202A (HIV-1 JR-CSF) (UniProt P20871)

B1: PGT-127 (antibody, V domains shown)
VH: QPQLQESGPGLVEASETLSLTCTVSGDSTGRCNYFWGWVRQPPGKGLEWIGSLSHCRSYYNTDWTYHNPSLKSRLTISLDTPKNQVFLRLTSVTAADTATYYCARFGGEVLVYRDWPKPAWVDLWGRGTLVVTVS
VL: QSALTQPPSASGSPGQSITISCTGTSNNFVSWYQQYPGKAPKLVIYEVNKRPSGVPDRFSGSKSGSTASLTVSGLQADDEGVYYCSSLVGNWDVIFGGGTKLTVL
Q: How did the Fold IC50 increase relative to wild-type [1] turn out when B1 was run?
A: 1.1 fold

Q: And the Fold IC50 increase relative to wild-type [2]?
A: 0.3 fold

Q: And the Fold IC50 increase relative to wild-type [3]?
A: 1.4 fold

Q: What about the Fold IC50 increase relative to wild-type [4] of the same binder?
A: 3.5 fold

Q: What about the Fold IC50 increase relative to wild-type [5] of the same binder?
A: 0.6 fold

Q: What about the Fold IC50 increase relative to wild-type [6] of the same binder?
A: 1.5 fold

Q: And the Fold IC50 increase relative to wild-type [7]?
A: 0.4 fold

Q: And the Fold IC50 increase relative to wild-type [8]?
A: 1.4 fold

Q: And the Fold IC50 increase relative to wild-type [9]?
A: 1.8 fold

Q: What about the Fold IC50 increase relative to wild-type [10] of the same binder?
A: 0.9 fold

Q: And the Median IC50 against viruses neutralized with an IC50 <50 µg/ml [11]?
A: 0.02 µg/mL

Q: What about the Fold IC50 increase relative to wild-type [12] of the same binder?
A: > 500 fold

Q: What about the IC50 (µg/mL), pseudovirus neutralization [13] of the same binder?
A: > 50 µg/mL

Q: What about the Polyclonal Transfectant Neutralization Index (well 5145 B14) [13] of the same binder?
A: 0.94

Q: And the Primary Neutralization Index (B cell culture well 5145 B14) [13]?
A: 1

Q: And the Polyclonal Transfectant Neutralization Index (well 5145 B14) [14]?
A: 1.61

Q: And the Primary Neutralization Index (B cell culture well 5145 B14) [14]?
A: 31.1

Q: And the Fold IC50 increase relative to wild-type [15]?
A: 1.2 fold

Q: What about the Fold IC50 increase relative to wild-type [16] of the same binder?
A: 1.9 fold

Q: And the Fold IC50 increase relative to wild-type [17]?
A: 1 fold

Q: And the Median IC50 against viruses neutralized with an IC50 <50 µg/ml [18]?
A: 0.55 µg/mL

Q: And the Fold IC50 increase relative to wild-type [19]?
A: 2.5 fold

Q: And the Fold IC50 increase relative to wild-type [20]?
A: 0.93 fold

Q: And the Fold IC50 increase relative to wild-type [21]?
A: 1.8 fold

Q: What about the Fold IC50 increase relative to wild-type [22] of the same binder?
A: 0.2 fold

Q: And the Fold IC50 increase relative to wild-type [23]?
A: 0.1 fold

Q: What about the Fold IC50 increase relative to wild-type [24] of the same binder?
A: 1.6 fold

Q: What about the Fold IC50 increase relative to wild-type [25] of the same binder?
A: 1.3 fold

Q: And the Median IC50 against viruses neutralized with an IC50 <50 µg/ml [26]?
A: 0.65 µg/mL

Q: What about the Fold IC50 increase relative to wild-type [27] of the same binder?
A: 4 fold

Q: And the Median IC50 against viruses neutralized with an IC50 <50 µg/ml [28]?
A: 0.04 µg/mL

Q: And the Fold IC50 increase relative to wild-type [29]?
A: 2.3 fold

Q: What about the Fold IC50 increase relative to wild-type [30] of the same binder?
A: 1 fold

Q: What about the Fold IC50 increase relative to wild-type [31] of the same binder?
A: 1 fold

Q: And the Fold IC50 increase relative to wild-type [32]?
A: 2.4 fold

Q: What about the Fold IC50 increase relative to wild-type [33] of the same binder?
A: 1.1 fold

Q: And the Fold IC50 increase relative to wild-type [34]?
A: 1.6 fold

Q: And the Fold IC50 increase relative to wild-type [35]?
A: 2.6 fold

Q: What about the Fold IC50 increase relative to wild-type [36] of the same binder?
A: 0.6 fold

Q: What about the Fold IC50 increase relative to wild-type [37] of the same binder?
A: 0.2 fold

Q: And the Fold IC50 increase relative to wild-type [38]?
A: 0.4 fold

Q: What about the Fold IC50 increase relative to wild-type [39] of the same binder?
A: 1.8 fold

B2: PGT-125 (antibody, V domains shown)
VH: QSQLQESGPRLVEASETLSLTCNVSGESTGACTYFWGWVRQAPGKGLEWIGSLSHCQSFWGSGWTFHNPSLKSRLTISLDTPKNQVFLKLTSLTAADTATYYCARFDGEVLVYNHWPKPAWVDLWGRGIPVTVSS
VL: QSALTQPPSASGSPGQSITISCNGTATNFVSWYQQFPDKAPKLIIFGVDKRPPGVPDRFSGSRSGTTASLTVSRLQTDDEAVYYCGSLVGNWDVIFGGGTTLTVL
Q: Which Fold IC50 increase relative to wild-type [1] does the source give for B2 here?
A: 1.2 fold

Q: And the Fold IC50 increase relative to wild-type [2]?
A: 0.9 fold

Q: What about the Fold IC50 increase relative to wild-type [3] of the same binder?
A: 1.2 fold

Q: What about the Fold IC50 increase relative to wild-type [4] of the same binder?
A: 0.9 fold

Q: And the Fold IC50 increase relative to wild-type [5]?
A: 1.2 fold

Q: And the Fold IC50 increase relative to wild-type [6]?
A: 1.2 fold

Q: And the Fold IC50 increase relative to wild-type [7]?
A: 0.5 fold

Q: What about the Fold IC50 increase relative to wild-type [8] of the same binder?
A: 0.9 fold

Q: And the Fold IC50 increase relative to wild-type [9]?
A: 1.1 fold

Q: What about the Fold IC50 increase relative to wild-type [10] of the same binder?
A: 3.3 fold

Q: What about the Median IC50 against viruses neutralized with an IC50 <50 µg/ml [11] of the same binder?
A: 0.01 µg/mL

Q: And the Fold IC50 increase relative to wild-type [12]?
A: > 250 fold

Q: And the IC50 (µg/mL), pseudovirus neutralization [13]?
A: 0.006 µg/mL

Q: And the Polyclonal Transfectant Neutralization Index (well 5123 A6) [13]?
A: 50.6

Q: What about the Primary Neutralization Index (B cell culture well 5123 A6) [13] of the same binder?
A: 133

Q: What about the Polyclonal Transfectant Neutralization Index (well 5123 A6) [14] of the same binder?
A: 119

Q: What about the Primary Neutralization Index (B cell culture well 5123 A6) [14] of the same binder?
A: 1730

Q: What about the Fold IC50 increase relative to wild-type [15] of the same binder?
A: 0.5 fold

Q: And the Fold IC50 increase relative to wild-type [16]?
A: 1 fold

Q: And the Fold IC50 increase relative to wild-type [17]?
A: 0.6 fold

Q: What about the Median IC50 against viruses neutralized with an IC50 <50 µg/ml [18] of the same binder?
A: 1.83 µg/mL

Q: What about the Fold IC50 increase relative to wild-type [19] of the same binder?
A: 1 fold

Q: What about the Fold IC50 increase relative to wild-type [20] of the same binder?
A: 0.4 fold

Q: And the Fold IC50 increase relative to wild-type [21]?
A: 2.1 fold

Q: And the Fold IC50 increase relative to wild-type [22]?
A: 0.2 fold

Q: And the Fold IC50 increase relative to wild-type [23]?
A: 1.2 fold

Q: What about the Fold IC50 increase relative to wild-type [24] of the same binder?
A: 0.9 fold

Q: What about the Fold IC50 increase relative to wild-type [25] of the same binder?
A: 0.3 fold

Q: What about the Median IC50 against viruses neutralized with an IC50 <50 µg/ml [26] of the same binder?
A: 0.04 µg/mL

Q: And the Fold IC50 increase relative to wild-type [27]?
A: 0.9 fold

Q: What about the Median IC50 against viruses neutralized with an IC50 <50 µg/ml [28] of the same binder?
A: 0.01 µg/mL

Q: And the Fold IC50 increase relative to wild-type [29]?
A: 0.8 fold

Q: What about the Fold IC50 increase relative to wild-type [30] of the same binder?
A: 0.7 fold

Q: And the Fold IC50 increase relative to wild-type [31]?
A: 0.8 fold

Q: What about the Fold IC50 increase relative to wild-type [32] of the same binder?
A: 1.6 fold

Q: What about the Fold IC50 increase relative to wild-type [33] of the same binder?
A: 0.9 fold

Q: What about the Fold IC50 increase relative to wild-type [34] of the same binder?
A: 0.9 fold

Q: And the Fold IC50 increase relative to wild-type [35]?
A: 1.9 fold

Q: And the Fold IC50 increase relative to wild-type [36]?
A: 0.8 fold

Q: What about the Fold IC50 increase relative to wild-type [37] of the same binder?
A: 1.8 fold

Q: What about the Fold IC50 increase relative to wild-type [38] of the same binder?
A: 1.9 fold

Q: What about the Fold IC50 increase relative to wild-type [39] of the same binder?
A: 0.8 fold

From patent US20200024330A1
